Experimental data published in US20260265410A1 (UNIVERSITY OF FLORIDA RESEARCH FOUNDATION, published 2026).

T1: human Nectin-2 extracellular domain (amino acid residues 1-360 of human Nectin-2) fused to hFc (human, UniProt Q92692 32-360)
T1 construct: Bought; also called hNectin-2-ECD-hFc; NECTIN2-ECD-hFc; not shown: human Fc (hFc)
T1 sequence: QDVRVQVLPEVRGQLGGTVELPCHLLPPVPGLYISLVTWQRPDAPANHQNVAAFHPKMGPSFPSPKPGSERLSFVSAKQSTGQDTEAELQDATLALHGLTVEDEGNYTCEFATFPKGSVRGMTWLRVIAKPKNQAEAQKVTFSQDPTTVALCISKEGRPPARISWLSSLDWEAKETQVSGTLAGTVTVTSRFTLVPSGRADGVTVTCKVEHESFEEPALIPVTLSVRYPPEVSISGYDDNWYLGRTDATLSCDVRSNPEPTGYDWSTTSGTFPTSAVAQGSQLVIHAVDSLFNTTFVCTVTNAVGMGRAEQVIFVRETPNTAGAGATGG

T2: human Nectin-2 on the cell surface (U937 cells) (human, UniProt Q92692 32-538)
T2 construct: Endogenous Nectin-2 of U937 cells; also called PVRL2; CD112
T2 sequence: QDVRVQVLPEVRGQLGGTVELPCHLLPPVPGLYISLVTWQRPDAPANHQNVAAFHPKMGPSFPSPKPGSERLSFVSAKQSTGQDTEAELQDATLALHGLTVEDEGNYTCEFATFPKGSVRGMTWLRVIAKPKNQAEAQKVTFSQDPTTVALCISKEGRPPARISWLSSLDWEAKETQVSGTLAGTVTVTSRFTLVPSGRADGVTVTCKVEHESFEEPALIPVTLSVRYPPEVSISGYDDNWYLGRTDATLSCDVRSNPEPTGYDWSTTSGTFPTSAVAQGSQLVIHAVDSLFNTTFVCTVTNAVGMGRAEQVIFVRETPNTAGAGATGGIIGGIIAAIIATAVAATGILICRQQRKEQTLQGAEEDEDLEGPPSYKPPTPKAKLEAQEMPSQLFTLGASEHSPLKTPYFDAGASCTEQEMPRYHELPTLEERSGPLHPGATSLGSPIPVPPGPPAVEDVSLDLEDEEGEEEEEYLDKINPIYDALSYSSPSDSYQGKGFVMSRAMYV

T3: human CD105-ECD: amino acid residues Met 1-Gly 586 of human CD105 (Sino bio: Cat: 10149-H02H) (human, UniProt P17813 26-586)
T3 construct: Bought; also called hCD105-ECD-hFc; hCD105-hFc
T3 sequence: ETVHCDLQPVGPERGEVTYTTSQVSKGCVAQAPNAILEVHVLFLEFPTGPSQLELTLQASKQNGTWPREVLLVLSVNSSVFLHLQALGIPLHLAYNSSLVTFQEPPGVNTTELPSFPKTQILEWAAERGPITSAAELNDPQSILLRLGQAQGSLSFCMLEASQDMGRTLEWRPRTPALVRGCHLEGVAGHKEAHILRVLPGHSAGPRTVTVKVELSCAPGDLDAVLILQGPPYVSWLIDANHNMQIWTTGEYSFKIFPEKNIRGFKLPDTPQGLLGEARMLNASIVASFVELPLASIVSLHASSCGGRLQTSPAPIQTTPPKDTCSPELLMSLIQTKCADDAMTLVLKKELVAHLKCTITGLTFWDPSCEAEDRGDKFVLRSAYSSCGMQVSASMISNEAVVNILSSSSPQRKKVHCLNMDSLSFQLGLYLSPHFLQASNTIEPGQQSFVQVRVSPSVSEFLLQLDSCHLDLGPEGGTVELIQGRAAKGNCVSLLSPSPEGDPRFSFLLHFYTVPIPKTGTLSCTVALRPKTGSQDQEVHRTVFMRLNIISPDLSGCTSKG

T4: human PTPRG extracellular domain (ECD) (residues 20~736 of human PTPRG) fused to hFc (human, UniProt P23470 20-736)
T4 construct: Produced in-house by transient transfection of Expi293 cells; also called hPTPRG-ECD-hFc; hPTPRG-ECD; not shown: human Fc (hFc)
T4 sequence: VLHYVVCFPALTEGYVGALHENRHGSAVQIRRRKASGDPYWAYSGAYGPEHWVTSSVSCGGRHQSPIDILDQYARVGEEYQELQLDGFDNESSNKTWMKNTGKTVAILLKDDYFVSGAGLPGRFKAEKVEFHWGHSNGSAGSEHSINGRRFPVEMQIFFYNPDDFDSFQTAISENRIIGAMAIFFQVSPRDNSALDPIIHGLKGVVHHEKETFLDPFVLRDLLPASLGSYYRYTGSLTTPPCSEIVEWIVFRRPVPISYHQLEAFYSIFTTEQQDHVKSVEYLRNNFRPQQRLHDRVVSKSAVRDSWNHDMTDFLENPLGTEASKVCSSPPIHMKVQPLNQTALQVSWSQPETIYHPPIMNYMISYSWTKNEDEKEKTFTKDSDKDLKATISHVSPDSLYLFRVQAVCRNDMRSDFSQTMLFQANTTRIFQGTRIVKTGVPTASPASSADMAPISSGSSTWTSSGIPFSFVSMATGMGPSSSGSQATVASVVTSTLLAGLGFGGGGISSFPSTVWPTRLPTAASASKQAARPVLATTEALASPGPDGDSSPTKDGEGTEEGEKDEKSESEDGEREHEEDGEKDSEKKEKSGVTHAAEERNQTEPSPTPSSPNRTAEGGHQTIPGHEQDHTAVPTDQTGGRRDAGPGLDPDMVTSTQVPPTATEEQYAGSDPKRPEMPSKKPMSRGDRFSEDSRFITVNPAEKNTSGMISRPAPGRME

T5: mouse PTPRG ECD (amino acid residues 20-733 of mouse PTPRG) fused to hFc (mouse, UniProt Q05909 20-733)
T5 construct: Produced in-house; also called mPTPRG-ECD; Mouse PTPRG-ECD-hFc; not shown: human Fc (hFc)
T5 sequence: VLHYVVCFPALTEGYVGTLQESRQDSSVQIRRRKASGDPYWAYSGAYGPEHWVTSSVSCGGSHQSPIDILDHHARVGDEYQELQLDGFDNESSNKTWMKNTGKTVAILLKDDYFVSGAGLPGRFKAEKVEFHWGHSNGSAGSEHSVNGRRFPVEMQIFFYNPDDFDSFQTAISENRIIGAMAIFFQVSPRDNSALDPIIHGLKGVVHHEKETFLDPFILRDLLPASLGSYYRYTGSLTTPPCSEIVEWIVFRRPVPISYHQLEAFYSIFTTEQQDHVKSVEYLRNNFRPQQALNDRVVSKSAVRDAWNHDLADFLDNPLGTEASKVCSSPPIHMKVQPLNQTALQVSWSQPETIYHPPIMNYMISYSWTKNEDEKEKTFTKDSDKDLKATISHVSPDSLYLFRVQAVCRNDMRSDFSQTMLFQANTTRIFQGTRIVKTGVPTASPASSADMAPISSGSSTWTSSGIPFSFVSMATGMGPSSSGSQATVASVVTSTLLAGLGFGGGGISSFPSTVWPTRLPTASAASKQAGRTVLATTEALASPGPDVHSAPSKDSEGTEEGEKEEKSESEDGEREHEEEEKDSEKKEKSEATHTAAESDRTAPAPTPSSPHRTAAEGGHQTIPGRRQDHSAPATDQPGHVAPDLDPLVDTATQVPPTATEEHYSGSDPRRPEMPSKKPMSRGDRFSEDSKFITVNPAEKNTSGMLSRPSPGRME

T6: C-terminal domain (CTD) of human PTPRG (amino acid residues 349~736 of human PTPRG) (human, UniProt P23470 349-736)
T6 construct: also called hPTPRG-CTD; human PTPRG carboxyl domain
T6 sequence: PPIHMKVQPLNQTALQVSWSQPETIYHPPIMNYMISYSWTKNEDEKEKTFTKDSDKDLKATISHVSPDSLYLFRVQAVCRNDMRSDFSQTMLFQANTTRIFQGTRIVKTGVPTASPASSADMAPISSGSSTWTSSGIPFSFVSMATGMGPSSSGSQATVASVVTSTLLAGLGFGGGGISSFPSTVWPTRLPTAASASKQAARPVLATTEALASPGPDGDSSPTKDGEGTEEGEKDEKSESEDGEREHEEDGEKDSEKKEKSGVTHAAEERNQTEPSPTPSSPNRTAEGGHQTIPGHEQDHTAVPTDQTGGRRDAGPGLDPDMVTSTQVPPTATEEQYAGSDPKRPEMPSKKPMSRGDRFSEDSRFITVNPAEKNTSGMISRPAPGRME


How the values were obtained:
[1] = target: T1, human Nectin-2 extracellular domain …; assay: SPR, summary table; antigen column hNectin2 ECD
[2] = target: T2, human Nectin-2 on the cell surface …; assay: flow cytometry on whole U937 cells, screen of the 28 clones (Ctrl row = 0); Nectin-2 is named as the antigen on U937 cells only in the later examples
[3] = target: T1, human Nectin-2 extracellular domain …; assay: SPR, Fab on human Nectin-2-ECD-hFc, five concentrations
[4] = target: T3, human CD105-ECD: amino acid residues …; assay: ELISA, absorbance at 405 nm, one condition per Fab and antigen
[5] = target: T4, human PTPRG extracellular domain (ECD) …; assay: as above
[6] = target: T1, human Nectin-2 extracellular domain …; assay: as above
[7] = target: T7, human PTPRG on the cell surface (U937 cells, HEL cells) (human, UniProt P23470 20-1445); assay: flow cytometry on whole HEL cells, screen of the 28 clones (Ctrl row = 0); PTPRG is named as the antigen on HEL cells only in the later examples
T7 construct: Endogenous PTPRG of human AML cell lines
T7 sequence (P23470 20-1445): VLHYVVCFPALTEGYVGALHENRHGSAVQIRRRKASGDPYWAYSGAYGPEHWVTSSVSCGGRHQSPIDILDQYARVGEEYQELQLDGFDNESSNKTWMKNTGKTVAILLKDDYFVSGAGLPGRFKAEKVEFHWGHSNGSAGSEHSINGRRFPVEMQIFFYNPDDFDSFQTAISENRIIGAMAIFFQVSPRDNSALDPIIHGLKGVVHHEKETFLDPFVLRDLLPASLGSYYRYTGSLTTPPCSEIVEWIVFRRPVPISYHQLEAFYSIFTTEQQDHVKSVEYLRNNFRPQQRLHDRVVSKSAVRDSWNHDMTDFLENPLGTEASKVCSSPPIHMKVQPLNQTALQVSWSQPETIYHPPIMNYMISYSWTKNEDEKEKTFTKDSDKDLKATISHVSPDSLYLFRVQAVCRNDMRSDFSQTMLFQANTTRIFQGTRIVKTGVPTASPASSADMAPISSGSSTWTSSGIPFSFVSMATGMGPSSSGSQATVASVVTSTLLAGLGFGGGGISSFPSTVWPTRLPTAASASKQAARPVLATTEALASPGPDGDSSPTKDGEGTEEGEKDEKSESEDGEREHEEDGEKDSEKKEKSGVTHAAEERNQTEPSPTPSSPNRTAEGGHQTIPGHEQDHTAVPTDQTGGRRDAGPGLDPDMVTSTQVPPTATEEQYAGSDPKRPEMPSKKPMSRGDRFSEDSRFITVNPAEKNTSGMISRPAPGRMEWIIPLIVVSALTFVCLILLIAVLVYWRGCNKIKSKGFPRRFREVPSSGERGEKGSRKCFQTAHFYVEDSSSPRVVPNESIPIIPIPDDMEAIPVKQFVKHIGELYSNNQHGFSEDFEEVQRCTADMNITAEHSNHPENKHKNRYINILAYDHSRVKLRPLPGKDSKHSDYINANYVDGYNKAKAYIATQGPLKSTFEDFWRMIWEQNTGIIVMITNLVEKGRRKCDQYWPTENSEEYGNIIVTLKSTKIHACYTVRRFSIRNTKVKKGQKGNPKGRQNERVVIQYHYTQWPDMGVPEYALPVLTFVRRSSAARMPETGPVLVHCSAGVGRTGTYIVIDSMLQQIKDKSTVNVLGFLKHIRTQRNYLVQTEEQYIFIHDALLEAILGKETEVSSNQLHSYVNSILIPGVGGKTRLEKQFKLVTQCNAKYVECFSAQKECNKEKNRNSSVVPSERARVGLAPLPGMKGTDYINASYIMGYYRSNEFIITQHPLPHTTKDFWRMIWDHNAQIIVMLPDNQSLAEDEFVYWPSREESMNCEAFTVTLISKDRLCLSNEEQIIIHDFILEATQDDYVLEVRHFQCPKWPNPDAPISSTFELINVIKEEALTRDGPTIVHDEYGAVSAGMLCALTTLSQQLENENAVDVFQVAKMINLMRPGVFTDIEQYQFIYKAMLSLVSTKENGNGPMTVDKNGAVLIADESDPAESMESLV

[8] = target: T5, mouse PTPRG ECD (amino acid residues …); assay: ELISA, one condition per Fab and antigen; y axis 0 to 1.8 without name or unit
[9] = target: T6, C-terminal domain (CTD) of human PTPRG …; assay: as above
[10] = target: T7, human PTPRG on the cell surface (U937 …); assay: flow cytometry on whole U937 cells, screen of the 28 clones (Ctrl row = 0); PTPRG is named as the antigen on U937 cells only in the later examples

flow cytometry binding value (the table prints no name or unit) [2] | binding result [4] | binding result [5] | Binder | other results
89.3 |  |  | Fab_350 (Fab, V domains shown, Chimeric rabbit/human Fab; also called N350; clone 350) VH: QEQLEESGGRLVTPGTPLTLTCTASGFSLSSYHMSWVRQAPGKGLEWIGLINTGDSAYYASWAKGRFTISRTSTTVDLRITSPTTEDTATYFCARTFGDGFNLWGPGTLVTISS VL: SFVLTQPASVQVDLGQTVSLTCTADTLSRSYASWYQQKPGQAPVLLIYRDTSRPSGVPDRFSGSSSGNTATLTISGAQAGDEADYYCATEDSGDSSYQYVFGGGTQLTVTG | Kd [1]: 67.5 nM; koff [1]: 0.0077 s⁻¹; kon [1]: 114000 M⁻¹ s⁻¹; Kd [3]: 67.5 nM
87.8 | no binding | no binding | Fab_277 (Fab, V domains shown, Chimeric rabbit/human Fab; also called N277) VH: AQSLEESGGRLVTPGTPLTLTCTASGFTLSSYHMSWVRQAPGKGLEWIGIISSGGSIYYASWAKGRFTISRTSTTVDLKMTSPTTEDTATYFCARYAAYSIGMDLWGPGTLVTVSS VL: QFVLTQPASVQVNLGQMVSLTCTADTLSRSYASWYQQKPGQAPVLLIYRDTSRPSGVPDRFSGSTSGNTATLTISGAQAGDEADYYCATDDNSGSSYQYVFGGGTQLTVTG | 
92.2 | no binding | no binding | Fab_2282 (Fab, V domains shown, Chimeric rabbit/human Fab; also called N2282; mAb_2282) VH: QEQLKESGGRLVTPGTPLTLTCTASGFTISSYHMSWVRQAPGKGLEWIGVISASGGSTYYASWAKGRFTISKTSTTVDLKITSPTTEDTATYFCARESYGGYNLWGPGTLVTVSS VL: SFVLTQPASVQVNLGQMVSLTCTADTLSRSYASWYQQKPGQAPVLLIYRDTSRPSGVPDRFSGSTSGNTATLTISGAQAGDEADYYCATDDNSGSSYQYVFGGGTQLTVTG | 
92.6 | no binding | no binding | Fab_2430 (Fab, V domains shown, Chimeric rabbit/human Fab; also called N2430) VH: AQSLEESGGRLVTPGTPLTLTCTVSGIDLSSYHMNWVRQAPGKGLEWIGIIGASAGTYYARWAKGRFTISKTSTTVDLKITSPTTEDTATYFCARSGGSMQLNLWGPGTLVTISS VL: SFVLTQPASVQVNLGQTVSLTCTADTLSRSYASWYQQKPGQAPVLLIYRDTSRPSGVPDRFSGSSSGNTATLTISGAQAGDEADYYCATDDSSGSSYQYVFGGGTQLTVTG | 
 | no binding |  | Fab_1955 (Fab, V domains shown, Chimeric rabbit/human Fab; also called P1955; clone 1955) VH: AQSLEESGGRLVTPGTPLTLTCTASGFSLYSYDMSWVRQAPGKGLEWIGLIDGGGNTYYASWAKGRFTISKTSSTTVDLKMTSLTTEDTATYFCARELWPAYSSGAFNIWGPGTLVTISS VL: SFVLTQPASVQVNLGQTVSLTCTADTLSRRYASWYQQKPGQAPVLLIYRDTRRPSGVPDRFSGSSSGNTATLTISGAQAGDEADYYCVTTDGSGSSYLVVFGGGTQLTVTG | binding result [6]: no binding; flow cytometry binding value (the table prints no name or unit) [7]: 12.9; binding result [8]: binds; binding result [9]: no binding; flow cytometry binding value (the table prints no name or unit) [10]: 91.3
